Results on 6 molecules are retold here after US20200223906A1 (Adimab, published 2020).

B1: ADI-18889 (antibody, V domains shown)
VH: QVQLQQWGAGLWKPSQTLSLTCAVHGGSLSGYSWSWIRQSPGRGLEWIGEVNRRGTTNYNPSLKGRVSISWDTSKNQVSLSLRSVTAADTATYYCAGTNVGFVNTHNDYYFGMDVWGQGTTVTVSS
VL: DIVMTQSPSSLSASVGDRVTITCRASQSISNYVNWYQKKTGQVPKLLIYGASNLESGVPSRFSGGGSGTDFTLTISSLQPEDFATYYCQQSYSVPLTFGGGTKVEIK
notes: full-length IgG from yeast; also called Antibody Number 244; Ab # 244
B2: ADI-18977 (antibody, V domains shown)
VH: QVQLVQSGTEVKKPGASVKISCKTSGYTFTNNVIQWVRQAPGQRLEWMGWISAGNGYTKYSDKFQDRVTITRDTSASTAYMEVSSLTSEDTAMYYCARQVSTSGWHATSHRFAPWGQGTLVTVSS
VL: DIQMTQSPSSLSASVGDRVTITCQASQGISRYLNWYQQKPGKAPNLLIYDASNLETGVPSRFSGSGSGTHFTLTISSLQPEDIATYYCQQYDNLPLTFGGGTKVEIK
notes: full-length IgG from yeast
B3: ADI-18971 (antibody, V domains shown)
VH: EVQLVESGGGLVQRGGSLRLSCAASGFTFSGNAMSWVRQAPGKGLEWVASIGESATSAYYADSVKGRFTISRDDSKNTLYLQMNSLRPEDTAVYFCAKDRVGWFGEFDAFDFWGQGTMVTVSS
VL: SYELTQPPSVSVAPGKTATISCGGNNIGGHKVHWYQQRPGQAPVLVIYYDNVRPSGIPERFSGSNSGNTATLTISRVEAGDEADFYCQVWDSRSEHVIFGGGTKVTVL
notes: full-length IgG from yeast; also called Antibody Number 319; Ab # 319
B4: ADI-18969 (antibody, V domains shown)
VH: QVQLVQSGPEVKKPGASVTVSCKASGYTFSHYGISWVRQAPGQGLEWMGWISAYHGQTNYAQNFQGRVTMTTDTSSNTAYMEVRSLRSDDTAVYFCARDVFSKTAARIFDYWGQGTLVTVSS
VL: EIVLTQSPLSLPVTLGQPASISCRSSQSLEYSDGNTYLSWFQQRPGQSPRRLIYKVSNRDSGVPDRFSGSQSGTDFTLKISRVEAEDVGVYYCMQATDWPVTFGQGTKLEIK
notes: full-length IgG from yeast; also called Antibody Number 317; Ab # 317
B5: ADI-18974 (antibody, V domains shown)
VH: QVQLVQSGPEVKKPGASVRVSCEASGYPFSNYGITWVRQAPGQGLEWMGWISAYNGNRDYLQKFQGRLTMTIDTSTRTAHMELRRLTSDDTAVYWCARDTPATAAPLLDYWGQGTLVTVSS
VL: DIVMTQSPLSLAVTLGQPASISCRSSQSLEFTDGNTYLNWFQQRPGQSPRRLIYKVSNRDSGVPDRFSGSGSGTGFTLKISRVEAEDVGVYYCMQGIFRPGTFGQGTKVEIK
notes: full-length IgG from yeast
B6: ADI-18975 (antibody, V domains shown)
VH: QVQLVQSGAEVKKPGASVKVSCKASGYTFVHYGISWVRQAPGQGLEWMGWISAYNGNTNSALKFQDRVTMTTDPSTSTAYMELRSLRSDDTAIYYCARDSGCCSGSTSDVWGKGTTVTVSS
VL: DIVMTQSPLSSPVTLGQPASISCRSSQSLVHSDGNTYLSWLHQRPGQPPRLLIYKISHRFSGVPDRFTGSGAGTDFTLKISRVEAEDVGVYYCMQATEFPPMYTFGQGTKVEIK
notes: full-length IgG from yeast; also called Antibody Number 323; Ab # 323

For the first experiment, the target named is T1, RSV F subtype A, furin-cleaved ectodomain stabilized in the prefusion conformation (DS-Cav1) (Respiratory syncytial virus subtype A, UniProt P03420 26-524).
T1 construct: extracellular domain; Trimeric soluble antigen; also called Prefusion subtype A
In words: BLI, IgG on AHQ sensor, 100 nM antigen. For orientation: Biolayer interferometry detects binding as a change in optical thickness at a sensor tip.
The Kd is a measure of binding affinity in units of concentration. A lower Kd goes with higher affinity. For the molecule B1, the Kd was 0.554 nM.

B2 showed a Kd of 0.786 nM.

The molecule B3 showed a dissociation constant (Kd) of 0.157 nM.

B4 registered an equilibrium dissociation constant (Kd) of 0.303 nM.

The molecule B5 registered a dissociation constant Kd of 0.253 nM.

The molecule B6 gave a dissociation constant (Kd) of 0.267 nM.

In another experiment the target is T2, RSV F subtype B, furin-cleaved ectodomain stabilized in the prefusion conformation (DS-Cav1) (Respiratory syncytial virus subtype B).
T2 construct: extracellular domain; Trimeric soluble antigen; also called Prefusion subtype B
In words: BLI, IgG on AHQ sensor, 100 nM antigen.
As to B1, the Kd is 0.587 nM.

Molecule B2 yielded a Kd of 0.966 nM.

For the molecule B3, binding was put at a Kd of 0.168 nM.

B4 came in with a Kd of 0.297 nM.

In turn, B5 showed a Kd of 0.29 nM.

In turn, B6 gave a Kd of 0.298 nM.

The next experiment addresses RSV F protein of subtype A (strain A2) on recombinant mKate-RSV virus (Respiratory syncytial virus subtype A …, UniProt P03420 26-574). In words: cell-based or functional assay.
Consider B1, for which the “Neut IC50 (µg/ml) subtype A” value is 0.04 µg/mL.

Consider B2, for which the “Neut IC50 (µg/ml) subtype A” value was 0.108 µg/mL.

Regarding B3, the “Neut IC50 (µg/ml) subtype A” value came to 0.039 µg/mL.

On to B4, for which the “Neut IC50 (µg/ml) subtype A” value was determined as 0.035 µg/mL.

As for B5, the “Neut IC50 (µg/ml) subtype A” value was 0.03 µg/mL.

With B6, the “Neut IC50 (µg/ml) subtype A” value worked out at 0.037 µg/mL.

Another experiment concerns the target RSV F protein of subtype B (18537) on recombinant mKate-RSV virus (Respiratory syncytial virus subtype B …, UniProt P13843 26-574). In words: cell-based or functional assay.
In the case of B1, the “Neut IC50 (µg/ml) subtype B” value came out at 0.019 µg/mL.

Regarding B2, the “Neut IC50 (µg/ml) subtype B” value came out at 0.117 µg/mL.

Regarding B3, the “Neut IC50 (µg/ml) subtype B” value was 0.114 µg/mL.

On to B4, for which the “Neut IC50 (µg/ml) subtype B” value worked out at 0.187 µg/mL.

For the molecule B5, the “Neut IC50 (µg/ml) subtype B” value came to 0.105 µg/mL.

In the case of B6, the “Neut IC50 (µg/ml) subtype B” value amounted to 0.174 µg/mL.
